Measured values as given in US20110318757A1 (MAB FACTORY, published 2011).
Where a chain is given by its changes, count along the chain named.

B1: R764-B7 (HT186-B7 IgG) (antibody, V domains shown)
VH: QMQLVQSGAEVKKPGASVKVSCKASGYTFTGHYMHWVRQAPGQGLEWMGWIDPVTGGTKYAQNFQGWVTMTRDTSIRTAYMELSRLRSDDTAMYYCAREVTGDRGQFDKWGQGTLVTVAS
VL: QSVLTQPPSVSVAPGKTARITCGGNNIGSKSVHWYQQKPGQAPALVIYYGSYRPSGIPERFSGSNYGNTATLTIRRVEAGDEADYYCQVWDSSSDWVFGGGTKLTVLG
notes: Human IgG1, lambda, produced in YB2/0 cells
B2: R764-G2 (HT186-G2 IgG) (antibody, V domains shown)
VH: B1 VH with Q1R, V20L, T30A, Q43R
VL: B1 VL with A44V, Y52D, P54S, Y66S, R75S
notes: as for B1
B3: R764-D11 (HT186-D11 IgG) (antibody, V domains shown)
VH: B1 VH with G8E, V11L, T28S, M81L
VL: B1 VL with Y52N, Y66S, R75S
notes: Human IgG1, lambda, produced in YB2/0 cells; also called R764 HT186-D11

Tests used:
[1] = target: T1, MUC1 (surface cell bound, tumor associated MUC1) (human, UniProt P15941 24-1255, tumor-associated O-glycosylation); assay: FACS on T47D cells, antibody at 100.0000 µg/ml
T1 construct: whole, on cells; Endogenous MUC1 on tumor cell lines; also called CD227; CA-15-3
T1 sequence (P15941 24-1255): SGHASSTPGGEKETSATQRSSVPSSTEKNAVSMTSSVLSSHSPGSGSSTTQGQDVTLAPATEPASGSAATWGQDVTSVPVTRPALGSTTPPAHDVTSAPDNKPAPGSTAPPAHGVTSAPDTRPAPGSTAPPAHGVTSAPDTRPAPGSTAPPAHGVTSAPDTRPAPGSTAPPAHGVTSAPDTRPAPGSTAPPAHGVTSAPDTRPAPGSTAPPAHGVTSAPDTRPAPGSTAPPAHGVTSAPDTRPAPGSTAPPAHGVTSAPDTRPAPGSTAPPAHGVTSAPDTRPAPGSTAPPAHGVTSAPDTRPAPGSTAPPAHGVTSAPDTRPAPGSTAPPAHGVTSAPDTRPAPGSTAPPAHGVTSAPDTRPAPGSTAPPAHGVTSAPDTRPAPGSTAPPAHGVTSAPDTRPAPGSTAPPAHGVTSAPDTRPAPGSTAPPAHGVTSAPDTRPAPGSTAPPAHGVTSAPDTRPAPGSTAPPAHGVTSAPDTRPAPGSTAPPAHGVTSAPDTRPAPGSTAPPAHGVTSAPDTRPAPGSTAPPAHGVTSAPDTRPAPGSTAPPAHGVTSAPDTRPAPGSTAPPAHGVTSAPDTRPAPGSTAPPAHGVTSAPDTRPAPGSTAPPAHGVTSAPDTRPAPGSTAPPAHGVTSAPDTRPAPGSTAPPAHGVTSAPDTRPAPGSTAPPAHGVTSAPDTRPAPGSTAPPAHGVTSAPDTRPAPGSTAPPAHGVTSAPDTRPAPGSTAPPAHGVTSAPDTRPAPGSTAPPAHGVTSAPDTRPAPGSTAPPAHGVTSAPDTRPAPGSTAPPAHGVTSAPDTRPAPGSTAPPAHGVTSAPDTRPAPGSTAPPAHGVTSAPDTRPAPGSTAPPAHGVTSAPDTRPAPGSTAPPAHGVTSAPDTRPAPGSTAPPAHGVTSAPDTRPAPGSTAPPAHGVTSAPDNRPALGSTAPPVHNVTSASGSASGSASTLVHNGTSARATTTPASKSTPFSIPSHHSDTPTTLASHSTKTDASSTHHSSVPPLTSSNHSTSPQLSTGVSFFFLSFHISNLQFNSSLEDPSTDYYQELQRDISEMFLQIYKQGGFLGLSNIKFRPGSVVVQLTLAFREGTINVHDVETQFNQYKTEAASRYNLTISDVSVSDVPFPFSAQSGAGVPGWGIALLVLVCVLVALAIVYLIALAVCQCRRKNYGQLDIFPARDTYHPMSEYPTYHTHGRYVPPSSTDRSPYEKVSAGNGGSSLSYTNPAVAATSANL
Procedure: (§1) From these antibody solutions further dilution by a factor of 3.162 were made (in a PP microtiter plate), so following antibody concentrations were used for FACS (μg/mL): 100, 31.62 10; 3.16; 1; 0.316; 0.1, 0.0316, 0.01, 0.003162
(§2) bound anti-MUC1 antibodies were detected by: goat anti-human IgG (H+L) Alexa488 conj. 1:200=10 μg/mL final (Invitrogen resp. Molecular probes Cat.No. A-11013) in 100 μL FACS buffer in total: 38.5 μL (stock: 2 mg/mL) were given to 7661.5 μL FACS buffer
(§3) The measurement was performed on a Beckman Coulter Cytomics FC500. Gates were set by analyzing a mock-control of each cell line w/o any antibody incubation. Specific protocol files (.pro) were saved.

[2] = target: T1, MUC1 (surface cell bound, tumor …); assay: FACS on T47D cells, antibody at 0.0316 µg/ml
Procedure: as §1, §2, §3

[3] = target: T1, MUC1 (surface cell bound, tumor …); assay: FACS on T47D cells, antibody at 10.0000 µg/ml
Procedure: as §1, §2, §3

[4] = target: T1, MUC1 (surface cell bound, tumor …); assay: FACS on T47D cells, antibody at 3.1623 µg/ml
Procedure: as §1, §2, §3

[5] = target: T1, MUC1 (surface cell bound, tumor …); assay: FACS on T47D cells, antibody at 0.0032 µg/ml
Procedure: as §1, §2, §3

[6] = target: T1, MUC1 (surface cell bound, tumor …); assay: FACS on T47D cells, antibody at 0.1000 µg/ml
Procedure: as §1, §2, §3

[7] = target: T1, MUC1 (surface cell bound, tumor …); assay: FACS on T47D cells, antibody at 0.0100 µg/ml
Procedure: as §1, §2, §3

[8] = target: T1, MUC1 (surface cell bound, tumor …); assay: FACS on T47D cells, antibody at 1.0000 µg/ml
Procedure: as §1, §2, §3

[9] = target: T1, MUC1 (surface cell bound, tumor …); assay: FACS on T47D cells, antibody at 31.6228 µg/ml
Procedure: as §1, §2, §3

[10] = target: T1, MUC1 (surface cell bound, tumor …); assay: FACS on T47D cells, antibody at 0.3162 µg/ml
Procedure: as §1, §2, §3

Binder	MFI [1]	MFI [2]	MFI [3]	MFI [4]	MFI [5]	MFI [6]	MFI [7]	MFI [8]	MFI [9]	MFI [10]
B1	12.6	1.04	6.56	4.96	0.738	0.728	1.11	2.26	9.16	1.44
B2	6.15	1.04	1.99	0.802	0.706	0.664	0.767	0.605	3.68	0.515
B3	17.4	1.13	11.1	7.92	1.17	1.45	1.09	4.72	13.2	1.96
